In the data set the target is ZNF191 (zinc finger protein 191) (UniProt P17028 1-368). Briefly: EMSA; LightShift Chemiluminescent EMSA kit (Pierce); buffer, salt, pH and temperature not given; unlabeled oligonucleotides used for competition, outcome not given. The conditions noted are these: protein: recombinant; label: 5' biotin; blunt.
ZNF191 (zinc finger protein 191), sequence (P17028 whole entry): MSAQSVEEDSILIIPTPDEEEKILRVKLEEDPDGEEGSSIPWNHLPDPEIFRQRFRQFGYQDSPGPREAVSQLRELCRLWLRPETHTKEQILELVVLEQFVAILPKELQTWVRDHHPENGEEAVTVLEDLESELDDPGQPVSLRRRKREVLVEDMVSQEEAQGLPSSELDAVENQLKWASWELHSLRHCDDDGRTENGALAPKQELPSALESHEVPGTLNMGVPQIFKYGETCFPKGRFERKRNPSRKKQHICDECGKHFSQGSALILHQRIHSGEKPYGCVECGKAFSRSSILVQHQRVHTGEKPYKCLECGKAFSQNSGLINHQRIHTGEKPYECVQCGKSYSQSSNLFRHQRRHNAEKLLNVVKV

B1: DNMT1(nt-240) EMSA probe, 30 bp (dsDNA)
DNA 1: CCTGAAAGAATGAATGAATGAATGCCTCGG
DNA 2: CCGAGGCATTCATTCATTCATTCTTTCAGG
Take B1: the binding result is “binds”.

B2: Mut-DNMT1(nt-240) EMSA probe, 30 bp (dsDNA)
DNA 1: CCTGAAAGTTTGTTTGTTTGTTTGCCTCGG
DNA 2: CCGAGGCAAACAAACAAACAAACTTTCAGG
For the molecule B2, the binding result is “no binding”.

Values taken from article PMC8894703, “ZNF191 alters DNA methylation and activates the PI3K‐AKT pathway in hepatoma cells via transcriptional regulation of DNMT1”.
